The results in this text go back to publication PMC7110113, “Termination of non‐coding transcription in yeast relies on both an RNA Pol II CTD interaction domain and a CTD‐mimicking region in Sen1” (The EMBO Journal, 2020).

By Kd is commonly meant the constant that tells how readily two partners part at equilibrium. High values mean a looser complex, low ones a tighter complex.

The target of assay [1] is Sen1 NIM peptide (Sen1 aa 2,052-2,063) (S. cerevisiae) (UniProt Q00416). Description: fluorescence polarisation; fluorescence anisotropy, equilibrium binding of Nrd1 CID variants to FAM-labelled NIM peptides; 10°C, 50 mM Na2HPO4, 100 mM NaCl, pH 8; 1:1 model with non-specific binding (DynaFit). A general note: Polarisation of emitted light reports the rotation of a fluorescent probe.

The target of assay [2] is Trf4 NIM peptide (S. cerevisiae). The assay is described as above.
Assay [3] has as its target T1, Nrd1 CID (S. cerevisiae, UniProt P53617 1-153).
T1 construct: The NMR sample was uniformly 15N,13C-labelled; also called wild-type Nrd1 CID; source: recombinant, purified as described previously (Kubicek et al, 2012)
T1 sequence (looked up): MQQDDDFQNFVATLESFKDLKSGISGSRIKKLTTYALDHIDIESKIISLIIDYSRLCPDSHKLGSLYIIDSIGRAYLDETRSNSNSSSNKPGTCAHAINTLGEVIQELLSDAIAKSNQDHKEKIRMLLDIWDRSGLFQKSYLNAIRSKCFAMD
Description: fluorescence polarisation; fluorescence anisotropy; N-terminally FAM-labelled NIM peptides with purified Nrd1 CID versions; 10°C, 50 mM Na2HPO4, 100 mM NaCl, pH 8; 1:1 model with non-specific binding (DynaFit). To be noted: both partners purified.

Another assay deals with T2, Nrd1 CID S25D (S. cerevisiae, UniProt P53617 1-153, S25D).
T2 construct: Nrd1 CID, S. cerevisiae; source: recombinant, purified as described previously (Kubicek et al, 2012)
T2 sequence (looked up): T1 sequence (looked up) with S25D
The assay is described as above. To be noted: both partners purified.

Assay [4] concerns the target Trf4 NIM peptide, FAM-labelled (S. cerevisiae). The assay is described as above.
Assay [5] addresses T1, Nrd1 CID. Description: NMR titration; [1H,15N] HSQC of Nrd1 CID titrated with NIM peptide, chemical shift perturbations; 20°C, 50 mM Na2HPO4, 100 mM NaCl, pH 8. Particulars: both partners purified.

Numbering of substitutions follows the chain as printed. In names and notes the source's numbering stands. Ends that are not written are not given here. FAM = 5,6-carboxyfluorescein

“Nrd1 CID S25D (from UniProt P53617 1-153) (domain or fragment)”: the Kd in assay [1] turned out to be 76.1 µM; in assay [2] it was 53.9 µM.

B1: Sen1 NIM peptide, FAM-labelled (peptide, UniProt Q00416 2052-2063, looked up)
peptide: {FAM}-DDDEDDYTPSIS
notes: The text prints D2052-D2053-D2054-E2055-D2056-D2057, Y2058, T2059, P2060, S2061 and I2062; source: synthetic peptide
B1 registered a Kd with Nrd1 CID [3] of 1.2 ± 0.02 µM. The binding result with Nrd1 CID S25D was “binds”.

B2: Nrd1 CID I130A (domain or fragment)
chain: T1 sequence (looked up) with I130A
Regarding B2, the Kd in assay [2] was 4.5 µM. This counts as single-digit micromolar.

B3: Nrd1 CID (domain or fragment)
chain: T1 sequence (looked up)
On to B3, for which, in assay [4], the dissociation constant (Kd) stood at 0.9 µM. This counts as sub-micromolar.

B4: Nrd1 CID R133D (domain or fragment)
chain: T1 sequence (looked up) with R133D
The molecule B4 yielded a dissociation constant Kd in assay [2] of 1.2 µM. This counts as single-digit micromolar.

B5: Nrd1 CID K21D (domain or fragment)
chain: T1 sequence (looked up) with K21D
Molecule B5 yielded an equilibrium dissociation constant (Kd) in assay [2] of 6.1 µM.

B6: Nrd1 CID I130N (domain or fragment)
chain: T1 sequence (looked up) with I130N
Take B6: the Kd in assay [2] was found to be 6.1 µM.

B7: Nrd1 CID R133G (domain or fragment)
chain: T1 sequence (looked up) with R133G
B7: the Kd in assay [2] was 1.3 µM.

B8: Nrd1 CID R133A (domain or fragment)
chain: T1 sequence (looked up) with R133A
In assay [2], B8 registered a Kd of 1.4 µM.

B9: Nrd1 CID L20D (domain or fragment)
chain: T1 sequence (looked up) with L20D
Turning to B9, the Kd in assay [2] came to 13.4 µM. This Kd is about 9.6-fold higher than that of the molecule before.

B10: Nrd1 CID I130K (domain or fragment)
chain: T1 sequence (looked up) with I130K
As for B10, in assay [2], the equilibrium dissociation constant (Kd) came out at 14.1 µM.

B11: Nrd1 CID R28D (domain or fragment)
chain: T1 sequence (looked up) with R28D
In assay [2], B11 came in with a dissociation constant (Kd) of 63.4 µM.

B12: Nrd1 CID M126A (domain or fragment)
chain: T1 sequence (looked up) with M126A
B12 gave a Kd in assay [2] of 1.1 µM.

B13: Sen1 NIM peptide (NMR) (peptide, UniProt Q00416 2052-2063, looked up)
peptide: DDDEDDYTPSIS
notes: The text prints D2052-D2053-D2054-E2055-D2056-D2057, Y2058, T2059, P2060, S2061 and I2062; it is surmised to be unlabelled; source: synthetic peptide
Take B13: the binding result in the assay with Nrd1 CID [5] is listed as “binds”.
